Biological target: cellugyrin Inner loop 1A peptide
Assay: SPR

“full length SARS-CoV-2 spike protein (from UniProt P0DTC2) (natural protein)” gave a maximum RU of 220 RU.
